Source: paper PMC4943950, “T4 Phage Tail Adhesin Gp12 Counteracts LPS-Induced Inflammation In Vivo” (Frontiers in Microbiology, 2016)

Molecular target: the molecule itself
Assay: SDS-PAGE of the non-heated sample (SDS-resistant oligomer); purified gp12 final preparation, not heated before SDS-PAGE, ambient temperature; trimer band at 172.5 kDa

B1: T4 phage short tail fiber protein (tail adhesin) gp12, recombinant, His-tagged (natural protein, bacteriophage T4, UniProt P10930 1-527, looked up)
chain: MSNNTYQHVSNESRYVKFDPTDTNFPPEITDVQAAIAAISPAGVNGVPDASSTTKGILFIPTEQEVIDGTNNTKAVTPATLATRLSYPNATETVYGLTRYSTNDEAIAGVNNESSITPAKFTVALNNAFETRVSTESSNGVIKISSLPQALAGADDTTAMTPLKTQQLAIKLIAQIAPSETTATESDQGVVQLATVAQVRQGTLREGYAISPYTFMNSSSTEEYKGVIKLGTQSEVNSNNASVAVTGATLNGRGSTTSMRGVVKLTTTAGSQSGGDASSALAWNADVIQQRGGQIIYGTLRIEDTFTIANGGANITGTVRMTGGYIQGNRIVTQNEIDRTIPVGAIMMWAADSLPSDAWRFCHGGTVSASDCPLYASRIGTRYGGNPSNPGLPDMRGLFVRGSGRGSHLTNPNVNGNDQFGKPRLGVGCTGGYVGEVQIQQMSYHKHAGGFGEHDDLGAFGNTRRSNFVGTRKGLDWDNRSYFTNDGYEIDPESQRNSKYTLNRPELIGNETRPWNISLNYIIKVKE
notes: No step that removes the His-Tag is described; also called phage adhesin
- stoichiometry N: 3
